Measurements taken from patent publication US20160168210A1, “DERIVATIVES OF COLLAGEN-BINDING HAIRPIN PEPTIDES” (NATIONAL RESEARCH COUNCIL OF CANADA, priority 2012, published 2016).
Entries after “also recorded” stand apart in the source; their conditions may differ. Where no end group is shown, it is not given here.

Columns and labels:
[1] = as reported previously (Blanco 1994; Cochran 2001b); cited from earlier work
[2] = target: T1, rat-tail collagen type I (Rattus norvegicus, UniProt P02454+P02466); assay: Collagen binding/responsiveness of peptides by proton NMR and H-15N HSQC spectroscopy; parameters: rat-tail collagen type I (at 4 mg/ml in 0.02 N acetic acid); purchased BD Bioscience; host or cells: rat tail (tissue-derived); conditions: for NMR perturbations after collagen gelation (polymerization); reversibility of collagen binding: before vs after collagen gelation; for response to / binding of collagen (NMR spectral perturbations): peptide free in solution vs in the presence of collagen
T1 sequence (P02454 152-1207 limits assumed): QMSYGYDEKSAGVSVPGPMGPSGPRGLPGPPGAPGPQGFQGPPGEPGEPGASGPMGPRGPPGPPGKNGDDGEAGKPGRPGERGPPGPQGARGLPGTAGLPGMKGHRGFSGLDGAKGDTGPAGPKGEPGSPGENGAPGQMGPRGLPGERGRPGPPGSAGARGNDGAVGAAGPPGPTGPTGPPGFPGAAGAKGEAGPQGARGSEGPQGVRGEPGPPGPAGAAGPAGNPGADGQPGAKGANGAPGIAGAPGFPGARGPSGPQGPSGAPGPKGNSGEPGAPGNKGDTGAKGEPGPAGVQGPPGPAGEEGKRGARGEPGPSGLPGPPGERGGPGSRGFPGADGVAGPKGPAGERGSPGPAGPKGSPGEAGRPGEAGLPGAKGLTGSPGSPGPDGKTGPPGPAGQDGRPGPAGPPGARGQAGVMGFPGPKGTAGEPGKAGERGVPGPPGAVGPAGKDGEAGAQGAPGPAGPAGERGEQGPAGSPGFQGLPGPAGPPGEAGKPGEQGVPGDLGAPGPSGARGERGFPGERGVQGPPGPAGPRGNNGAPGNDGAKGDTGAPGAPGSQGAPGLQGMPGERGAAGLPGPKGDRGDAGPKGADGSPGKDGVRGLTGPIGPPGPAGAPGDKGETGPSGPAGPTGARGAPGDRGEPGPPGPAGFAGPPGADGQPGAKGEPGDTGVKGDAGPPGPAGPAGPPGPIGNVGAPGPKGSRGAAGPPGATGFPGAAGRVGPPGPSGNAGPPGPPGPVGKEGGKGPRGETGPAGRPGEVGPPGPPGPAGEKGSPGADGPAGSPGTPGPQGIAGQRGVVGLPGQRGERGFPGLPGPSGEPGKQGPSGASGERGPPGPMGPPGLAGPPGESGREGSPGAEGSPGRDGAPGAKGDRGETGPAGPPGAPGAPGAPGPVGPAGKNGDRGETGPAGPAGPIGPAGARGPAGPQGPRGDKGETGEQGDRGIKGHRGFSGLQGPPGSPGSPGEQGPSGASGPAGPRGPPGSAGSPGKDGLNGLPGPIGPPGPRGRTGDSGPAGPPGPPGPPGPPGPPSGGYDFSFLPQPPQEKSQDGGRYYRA
T1 sequence (P02466 86-1125 limits assumed): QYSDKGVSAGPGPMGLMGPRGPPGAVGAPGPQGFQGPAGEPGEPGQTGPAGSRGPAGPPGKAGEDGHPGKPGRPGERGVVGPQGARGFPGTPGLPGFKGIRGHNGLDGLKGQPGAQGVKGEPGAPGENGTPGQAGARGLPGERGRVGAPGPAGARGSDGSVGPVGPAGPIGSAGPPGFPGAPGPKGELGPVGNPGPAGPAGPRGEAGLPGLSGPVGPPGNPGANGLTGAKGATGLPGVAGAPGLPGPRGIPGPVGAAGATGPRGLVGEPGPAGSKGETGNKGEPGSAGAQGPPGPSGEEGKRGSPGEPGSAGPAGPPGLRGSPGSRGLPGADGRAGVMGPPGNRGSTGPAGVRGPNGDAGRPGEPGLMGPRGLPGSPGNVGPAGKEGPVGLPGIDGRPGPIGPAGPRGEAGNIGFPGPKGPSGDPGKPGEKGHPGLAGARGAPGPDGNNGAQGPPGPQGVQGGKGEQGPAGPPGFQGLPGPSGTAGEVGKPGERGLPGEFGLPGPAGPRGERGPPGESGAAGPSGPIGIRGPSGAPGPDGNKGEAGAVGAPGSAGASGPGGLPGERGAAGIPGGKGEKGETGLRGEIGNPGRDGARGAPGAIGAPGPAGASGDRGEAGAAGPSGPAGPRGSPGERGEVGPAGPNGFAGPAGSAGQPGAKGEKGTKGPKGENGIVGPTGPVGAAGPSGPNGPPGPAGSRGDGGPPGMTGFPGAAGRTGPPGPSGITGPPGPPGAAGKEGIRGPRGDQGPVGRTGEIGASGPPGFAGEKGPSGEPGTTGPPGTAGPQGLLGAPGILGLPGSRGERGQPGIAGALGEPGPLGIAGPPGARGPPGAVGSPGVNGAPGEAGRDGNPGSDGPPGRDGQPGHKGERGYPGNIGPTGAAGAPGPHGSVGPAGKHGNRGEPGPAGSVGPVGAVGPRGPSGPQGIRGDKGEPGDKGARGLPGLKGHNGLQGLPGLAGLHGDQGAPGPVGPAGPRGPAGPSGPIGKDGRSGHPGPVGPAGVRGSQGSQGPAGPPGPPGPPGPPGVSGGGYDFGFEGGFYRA
Method: Rat collagen hydrogels were prepared using rat-tail collagen type I (at 4 mg/ml in 0.02 N acetic acid) from BD Bioscience. A volume of 200 μL of the concentrated collagen solution was mixed with an equal volume of a buffer solution that was 400 mM in Tris-HCl and 400 mM in NaCl with a pH of 7.6 and with 50 μL of deuterated water (D2O). The sample mixture was transferred to an NMR tube followed by gentle mixing under agitation using a Thermolyne™ Max Mix-II apparatus. The NMR tube containing the collagen solution was placed within the RF probe housed in a 500 MHz super-conducting magnet (Bruker Avance-500 NMR spectrometer). The probe and sample bulk temperature was kept at 277 K for 3 hours and then elevated to 310 K at a rate of 1 degree/10 min to enable fibril alignment during a slow process of collagen gelation under the influence of the magnetic field (Ma 2008). The degree of fibril alignment of the collagen hydrogels was determined by use of deuterium NMR spectroscopy of the added D2O as described (Ma 2008). […]
Randomly-deposited collagen (hydrogel) matrix was prepared following the same procedure as above for partially aligned hydrogels, except that the RF probe and the NMR tube (or test tubes) containing the collagen solution were placed outside the magnetic field. Peptides containing collagen-binding hairpins were introduced into the hydrogels in two ways, the first with the collagen stock solution diluted (50:50 in volume ratio) by the buffer of 400 mM in Tris-HCl and 400 mM in NaCl at pH 7.6 containing the peptides of interest (i.e. for FIGS. 1A & 1D), which gelates in the presence of the added peptide. Alternatively, peptides in an appropriate buffer were introduced to the top of the hydrogel matrix (i.e. for FIGS. 1B & 1C) preformed in the NMR tube (or test tube) following the procedures described above. The behavior of the peptides in the hydrogels was followed by use of NMR H-^15N HSQC spectra for ^15N-labelled peptides (FIG. 1) and/or by use of one-dimensional proton NMR spectroscopy (FIG. 2).
(§1) Deuterium NMR spectroscopy studies of collagen responsiveness (and/or binding) for each peptide were carried out using a volume of (400-X) μL of a peptide dissolved in pure water mixed with 50 μL of a 10×PBS (phosphate-buffered saline) supplemented by sodium phosphate to a final concentration of 50 mM, with 50 μL of deuterated water (D2O) to form the reference sample (where X=0), or the peptide-collagen complex with X μL of rat-tail collagen type I (at 3.6 to 4 mg/ml in 0.02 N acetic acid from BD Bioscience) adjusted to achieve the desired final concentration of collagen. The pH value of the reference peptide samples was adjusted to match the pH of the final peptide-collagen complex in order to facilitate NMR spectral comparison. The peptide-collagen solutions were also subjected to gelation under magnetic field guidance followed by the measurement of fibril alignment (Ma 2008) as a semi-quantitative indication of peptide-collagen binding. Deuterium coupling constants measuring the degree of collagen fibril alignment were reduced by more than 1.0 Hz for MH2-wZIP4, by less than 0.5 Hz for MH2-wZIP6 and MH2-wZIP5, which parallel those observed for trpzip4, trpzip6, trpzip5 and the gb1 peptide (see Example 4). As a comparison, a solution of rat collagen at a concentration of 1.8 mg/ml in 200 mM Tris-Cl/200 mM NaCl at pH 7.6 formed a partially-aligned hydrogel with a deuterium coupling constant (Ma, 2008) of 2.5 Hz, while a solution of rat collagen at a concentration of 3 mg/ml in PBS (137 mM NaCl/2.68 mM KCl/10.1 mM Na2HPO4/1.76 mM KH2PO4) supplemented with Na2HPO4 to achieve a final concentration of 50 mM at pH 7.4 formed a partially-aligned hydrogel with a deuterium coupling constant of 4.8 Hz. A solution of human collagen at a concentration of 2.23 mg/ml in PBS supplemented with Na2HPO4 with a final concentration of 50 mM at pH 7.4 formed a partially-aligned hydrogel with a deuterium coupling constant of 1.3 Hz.

[3] = target: T1, rat-tail collagen type I; assay: Collagen fibril alignment of hydrogels formed from peptide-collagen solutions, deuterium NMR (deuterium coupling constant); assay type: binding; parameters: rat-tail collagen type I (at 4 mg/ml in 0.02 N acetic acid); purchased BD Bioscience; host or cells: rat tail (tissue-derived)
Method: Rat collagen hydrogels were prepared using rat-tail collagen type I (at 4 mg/ml in 0.02 N acetic acid) from BD Bioscience. A volume of 200 μL of the concentrated collagen solution was mixed with an equal volume of a buffer solution that was 400 mM in Tris-HCl and 400 mM in NaCl with a pH of 7.6 and with 50 μL of deuterated water (D2O). The sample mixture was transferred to an NMR tube followed by gentle mixing under agitation using a Thermolyne™ Max Mix-II apparatus. The NMR tube containing the collagen solution was placed within the RF probe housed in a 500 MHz super-conducting magnet (Bruker Avance-500 NMR spectrometer). The probe and sample bulk temperature was kept at 277 K for 3 hours and then elevated to 310 K at a rate of 1 degree/10 min to enable fibril alignment during a slow process of collagen gelation under the influence of the magnetic field (Ma 2008). The degree of fibril alignment of the collagen hydrogels was determined by use of deuterium NMR spectroscopy of the added D2O as described (Ma 2008).
as §1, with “A solution of human collagen at a concentration of 2.23 mg/ml in PBS supplemented with Na2HPO4 with a final concentration of 50 mM at pH 7.4 formed a partially-aligned hydrogel with a deuterium coupling constant of 1.3 Hz.” left out

[4] = tested on: abdominal vena cava injured by FeCl3; conditions: I.V. 30 minutes after FeCl3; about 1/4 of the highest FL4247 dose
From the text: The application of ferric chloride on venous and arterial vessels was therefore the method used to produce the inflamed vasculature in the animal model. The carotid artery (arterial model) and the abdominal vena cava (venous model) were the chosen vessels for the imaging experiments with injured blood vessels undergong thrombosis.
The FeCl3 rat venous model of thrombosis was generated as described (Wang 2005) with some modifications. Briefly, rats were anesthetized with a 2.5% isoflurane/oxygen mixture and placed on a heat source (35-37° C.). The vena cava was then exposed via a midline incision and the region between the renal and iliolumbar veins was isolated. One minute after drug administration, a piece of filter paper (Gel Blot Paper, GB003, Whatman, Piscataway, N.J., USA; 7 mm diameter) saturated with 10% FeCl3 (EMD Chemicals Inc., Gibbstown, N.J., USA) was placed on the exposed surface of the vena cava and incubated for 3.5 minutes. During the application of FeCl3, the abdominal region was covered with aluminum foil. At the end of the incubation period, the filter paper was removed and the exposed viscera covered with a saline-soaked gauze.
In these imaging experiments, there were also a 30-minute waiting time after introduction of FeCl3 to the exposed vena cava to ensure the development of substantial vascular injury and the deposition of a thrombus.

[5] = target: T2, rat-tail collagen type I (rat, UniProt P02454 152-1207; P02466 86-1125); assay: NMR spectroscopy (Table 4 footnote)
T2 construct: also called type-I collagen; unpolymerized collagen
T2 sequence (P02454 152-1207 limits assumed, chain 1 of 2): as the sequence (P02454 152-1207 limits assumed) above
T2 sequence (P02466 86-1125 limits assumed, chain 2 of 2): as the sequence (P02466 86-1125 limits assumed) above

[6] = target: T2, rat-tail collagen type I; assay: cell-based or functional assay

Question: Which Tm [1] does the source give for “GEWTWDDATKTWTVTE (GEWTWDDATKTWTVTE-NH2) [trpzip6, reference compound]” here?
Answer: about 45 °C

Question: What about the “NMR perturbations after collagen gelation (polymerization); reversibility of collagen binding” value (shortened to “NMR perturbations … of collagen binding”) [2] of the same molecule?
Answer: revert toward those of the free peptides after collagen polymerization

Question: And the “response to / binding of collagen (NMR spectral perturbations)” value (“response to / binding of collagen” for short) [2]?
Answer: responded to collagen; also recorded: respond to the presence of collagen

Question: What does the source list for “GEWTWDDATKTWTWTE (GEWTWDDATKTWTWTE-NH2) [trpzip4, reference compound]”?
Answer: Tm [1]: about 70 °C; response to / binding of collagen (NMR spectral perturbations) [2]: responded to collagen; also recorded: most pronounced changes in response to the presence of collagen; also recorded: dramatically altered by collagen; effect on collagen gelation and degree of collagen alignment [3]: significantly reduced degree of collagen alignment

Question: With “GEWTYDDATKTFTVTE (gb1 - does not bind collagen) [reference compound]” as the molecule, how does the Tm [1] read?
Answer: about 7 °C

Question: What about the “response to / binding of collagen” value [2] of the same molecule?
Answer: no response to collagen; also recorded: little binding capacity; also recorded: does not bind collagen

Question: What about the “effect on collagen gelation and degree of collagen alignment” value [3] of the same molecule?
Answer: remained similar with or without the peptide

Question: For “GEWTYDDATKTFTWTE (GEWTYDDATKTFTWTE-NH2) [trpzip5, reference compound]”, which Tm [1] is on record?
Answer: about 43 °C

Question: What about the “NMR perturbations … of collagen binding” value [2] of the same molecule?
Answer: revert toward those of the free peptides after collagen polymerization; also recorded: reverts to a greater extent as compared to trpzip6

Question: And the “response to / binding of collagen” value [2]?
Answer: responded to collagen; also recorded: respond to the presence of collagen

Question: For “IRFDTGEWTWDDATKTWTWTEGDFEEIPEEYLQ (MH2-wZIP4 - molecule of Formula (I))”, which “NMR perturbations … of collagen binding” value [2] is on record?
Answer: no dramatic impact on resonance perturbations

Question: And the “NMR perturbations / release after collagen degradation by a collagenase” value ([2]; collagenase treatment)?
Answer: releasable by the collagenase; also recorded: highly sensitive to the treatment of a collagenase

Question: And the “entrapment in collagen hydrogel” value ([2]; diffused into pre-aligned collagen hydrogels)?
Answer: greatly-reduced entrapment

Question: What about the “response to / binding of collagen” value [2] of the same molecule?
Answer: most pronounced proton NMR spectral changes; also recorded: highest capacity of binding unpolymerized soluble collagen

Question: And the “effect on collagen gelation and degree of collagen alignment” value [3]?
Answer: most pronounced interference with hydrogel formation by collagen

Question: And the “reduction of deuterium coupling constant measuring the degree of collagen fibril alignment” value ([3]; gelation under magnetic field guidance)?
Answer: more than 1.0 Hz

Question: For “STWTWNGTNWTRNDGGC-Fluor750 (not fully specified (C-terminus); printed as STWTWNGTNWTRNDGGC-Fluor750; also: HiLyte Fluor750 conjugate) [FL4447]”, which “fluorescence at the injured vena cava (whole-body and post-mortem imaging)” value [4] is on record?
Answer: somewhat reduced level of local fluorescence as compared to FL4247/FL4312

Question: Does SVTWENGKWTVK [W4W9-trpzip2] bind [5]?
Answer: no binding

Question: For IRFTDGEWTWDDATKTWTWTEGDFEEIPEEYLQ [MH2-wZIP4], which “reduction of the deuterium coupling constant measuring the degree of collagen fibril alignment” value [6] is on record?
Answer: > 1 Hz

Question: Does SYTWENGKWTYK [YWWY-trpzip2] bind [5]?
Answer: no binding

Question: Does SYTWEGNKWTYK [Y2Y11-trpzip1] bind [5]?
Answer: no binding

Question: With GEWTYDDATKTFTWTE [MH2-wZIP5] as the molecule, how does the “reduction of the deuterium coupling constant measuring the degree of collagen fibril alignment” value [6] read?
Answer: < 0.5 Hz

Question: With GEWTWDDATKTWTVTE [MH2-wZIP6] as the molecule, how does the “reduction of the deuterium coupling constant measuring the degree of collagen fibril alignment” value [6] read?
Answer: < 0.5 Hz
